In patent US20230039157A1:

T1: TF219
T1 chain: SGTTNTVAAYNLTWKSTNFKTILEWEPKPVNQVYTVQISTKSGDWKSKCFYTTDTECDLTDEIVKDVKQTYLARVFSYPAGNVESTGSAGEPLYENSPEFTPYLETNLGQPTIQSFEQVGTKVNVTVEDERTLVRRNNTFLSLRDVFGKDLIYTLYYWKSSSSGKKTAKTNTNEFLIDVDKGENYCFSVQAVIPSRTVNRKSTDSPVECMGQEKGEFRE


Tests used:
[1] = target: IL-2Rα, IL-2Rβ and common γ chain on CTLL-2 cells; assay: cell-based or functional assay
[2] = target: IL-2Rβ and common γ chain on 32Dβ cells; assay: cell-based or functional assay
[3] = target: 18t15-12s multi-chain chimeric polypeptide
[4] = target: 21t15-7s multi-chain chimeric polypeptide
[5] = target: 21t15-TGFRs multi-chain chimeric polypeptide
[6] = target: T1, TF219
[7] = target: mouse (m)21t15 multi-chain chimeric polypeptide

EC50 of CTLL-2 cell proliferation (WST1, absorbance at 450 nM) [1] [pM] | EC50 of 32Dβ cell proliferation (WST1, absorbance at 450 nM) [2] [pM] | Molecule | FX activation measured by FXa activity (chromogenic substrate S-2765) [3] | FX activation measured by FXa activity (chromogenic substrate S-2765) [4] | FX activation measured by FXa activity (chromogenic substrate S-2765) [5] | FX activation measured by FXa activity (chromogenic substrate S-2765) [6] | FX activation measured by FXa activity (chromogenic substrate S-2765) [7]
548 | 140 | recombinant IL-2 (from UniProt P60568 21-153) (ligand) |  |  |  |  | 
 | 1.6 | recombinant IL-15 (from UniProt P40933 49-162) (ligand) |  |  |  |  | 
 |  | Factor VIIa (protein) ANAFLEELRPGSLERECKEEQCSFEEAREIFKDAERTKLFWISYSDGDQCASSPCQNGGSCKDQLQSYICFCLPAFEGRNCETHKDDQLICVNENGGCEQYCSDHTGTKRSCRCHEGYSLLADGVSCTPTVEYPCGKIPILEKRNASKPQGRIVGGKVCPKGECPWQVLLLVNGAQLCGGTLINTIWVVSAAHCFDKIKNWRNLIAVLGEHDLSEHDGDEQSRRVAQVIIPSTYVPGTTNHDIALLRLHQPVVLTDHVVPLCLPERTFSERTLAFVRFSLVSGWGQLLDRGATALELMVLNVPRLMTQDCLQQSRKVGDSPNITEYMFCAGYSDGSKDSCKGDSGGPHATHYRGTWYLTGIVSWGQGCATVGHFGVYTRVSQYIEWLQKLMRSEPRPGVLLRAPFP | TF219 and TF219-containing multi-chain chimeric polypeptides had very low FX activation activity | TF219 and TF219-containing multi-chain chimeric polypeptides had very low FX activation activity | TF219 and TF219-containing multi-chain chimeric polypeptides had very low FX activation activity | TF219 and TF219-containing multi-chain chimeric polypeptides had very low FX activation activity | TF219 and TF219-containing multi-chain chimeric polypeptides had very low FX activation activity
